This note sets out measurements from publication PMC9596381, “GPC3-Unc5 receptor complex structure and role in cell migration” (Cell, 2022).

For experiment [1], the target named is T1, murine GPC3 ectodomain, residues 31-559 (mGPC3^ecto) (mouse, UniProt Q8CFZ4 31-559).
T1 construct: mouse glypican-3 (GPC3), residues 31-559; source: HEK293 cells, purified
Description: SPR; Unc5A-D ectodomains immobilised; hGPC3^core or mGPC3^ecto injected in a 2-fold dilution series (top 4.5 uM) with Fc control protein, Nano^glue or Nano^break kept constant at 9 uM (with hGPC3^core) or 4.5 uM (with mGPC3^ecto). As to conditions: both partners purified.

Experiment [2] addresses T2, human glypican-3 core domain, residues 32-483 (hGPC3^core) (human, UniProt P51654 32-483, N-linked glycans at N124 and N241).
T2 construct: human glypican-3 (GPC3), core domain, residues 32-483; Only partly cleaved at the furin-like site (R355-R358); the two fragments stay covalently attached; The forward primer starts at Met1; source: HEK293T or GnTI-deficient HEK293S, transiently transfected, secreted, purified (HisTrap, SEC); not shown: His6, C-terminal, kept
The description is as above. To be noted: both partners purified.

T2 sequence (P51654 32-483): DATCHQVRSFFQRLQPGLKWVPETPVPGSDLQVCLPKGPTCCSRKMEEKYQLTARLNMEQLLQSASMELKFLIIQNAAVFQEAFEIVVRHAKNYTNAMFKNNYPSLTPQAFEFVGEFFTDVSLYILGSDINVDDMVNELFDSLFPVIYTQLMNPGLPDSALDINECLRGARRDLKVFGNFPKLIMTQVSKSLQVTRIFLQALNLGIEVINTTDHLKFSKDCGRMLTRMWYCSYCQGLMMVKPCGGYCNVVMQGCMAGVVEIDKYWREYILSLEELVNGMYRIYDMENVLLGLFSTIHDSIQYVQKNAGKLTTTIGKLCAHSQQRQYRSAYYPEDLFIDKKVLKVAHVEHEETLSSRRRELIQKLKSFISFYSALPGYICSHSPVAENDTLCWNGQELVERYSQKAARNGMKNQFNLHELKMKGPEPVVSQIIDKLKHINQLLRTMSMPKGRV
T1 sequence (Q8CFZ4 31-559): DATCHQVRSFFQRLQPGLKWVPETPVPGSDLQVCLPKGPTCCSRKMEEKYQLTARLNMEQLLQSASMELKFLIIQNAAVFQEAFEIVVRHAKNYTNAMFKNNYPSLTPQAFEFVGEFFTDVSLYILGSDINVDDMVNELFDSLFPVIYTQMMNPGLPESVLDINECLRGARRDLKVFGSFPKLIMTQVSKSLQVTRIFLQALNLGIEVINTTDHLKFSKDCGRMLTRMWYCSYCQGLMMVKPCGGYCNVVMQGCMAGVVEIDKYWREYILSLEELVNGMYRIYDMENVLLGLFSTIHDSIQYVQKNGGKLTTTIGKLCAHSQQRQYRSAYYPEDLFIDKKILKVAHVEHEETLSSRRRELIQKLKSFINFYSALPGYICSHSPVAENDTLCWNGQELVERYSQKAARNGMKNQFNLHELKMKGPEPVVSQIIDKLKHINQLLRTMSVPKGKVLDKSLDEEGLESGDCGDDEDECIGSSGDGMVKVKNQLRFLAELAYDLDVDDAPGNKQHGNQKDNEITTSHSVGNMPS

B1: mouse Unc5A ectodomain, residues 1-359 (mUnc5A^ecto) (domain or fragment)
chain: not shown
modifications: biotin on the Avi-tag
notes: signal peptide in the construct; mouse Unc5A, residues 1-359; source: HEK293 cells, purified; not shown: Avi-tag, C-terminal, kept
With B1, the binding result in experiment [1] and in experiment [2] was “binds” in each case.
